Consider five molecules from patent publication US20100247549A1 (US Dept. of Health and Human Services, published 2010).

In one experiment the target is human Fcγ R I (human, UniProt P12314 16-288). Briefly: ELISA, IgG titrated against human Fcγ R I.
The target in a further experiment is T1, human Fcγ R IIB (human, UniProt P31994 46-217).
T1 sequence: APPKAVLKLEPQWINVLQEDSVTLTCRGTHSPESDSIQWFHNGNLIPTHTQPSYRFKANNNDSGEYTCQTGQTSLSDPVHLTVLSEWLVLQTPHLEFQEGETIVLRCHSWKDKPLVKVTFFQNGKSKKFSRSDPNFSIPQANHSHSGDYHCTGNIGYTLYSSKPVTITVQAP
Briefly: ELISA, IgG titrated against human Fcγ R IIB.

The target of the next experiment is human Fcγ R IIIB (human, UniProt O75015 17-200). Briefly: ELISA, IgG titrated against human Fcγ R IIIB.
Another experiment has as its target purified human C1q (human, UniProt P02745 23-245; P02746 28-253; P02747 29-245). Briefly: ELISA, IgG titrated against purified human C1q.
The target of experiment [1] is Envelope glycoprotein (E) of parental DENV-4 (C6/36) (dengue virus type 4, UniProt P09866 280-774).
Envelope glycoprotein (E) of parental DENV-4 (C6/36), sequence (P09866 280-774 limits assumed): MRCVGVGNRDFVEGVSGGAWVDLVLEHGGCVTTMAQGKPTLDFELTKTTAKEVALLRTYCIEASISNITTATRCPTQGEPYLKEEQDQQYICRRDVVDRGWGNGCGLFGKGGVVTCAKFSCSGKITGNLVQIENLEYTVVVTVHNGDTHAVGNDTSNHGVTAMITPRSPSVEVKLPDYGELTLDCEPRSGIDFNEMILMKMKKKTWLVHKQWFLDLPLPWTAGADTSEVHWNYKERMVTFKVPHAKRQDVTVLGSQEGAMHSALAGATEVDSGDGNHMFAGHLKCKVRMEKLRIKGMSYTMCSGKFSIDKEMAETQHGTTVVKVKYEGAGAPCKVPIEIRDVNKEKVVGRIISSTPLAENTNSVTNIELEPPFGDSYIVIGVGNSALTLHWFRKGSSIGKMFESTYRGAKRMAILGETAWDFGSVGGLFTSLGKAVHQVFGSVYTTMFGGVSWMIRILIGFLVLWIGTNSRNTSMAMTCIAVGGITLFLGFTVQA

purified human C1q, sequence (P02745 23-245 limits assumed, chain 1 of 3): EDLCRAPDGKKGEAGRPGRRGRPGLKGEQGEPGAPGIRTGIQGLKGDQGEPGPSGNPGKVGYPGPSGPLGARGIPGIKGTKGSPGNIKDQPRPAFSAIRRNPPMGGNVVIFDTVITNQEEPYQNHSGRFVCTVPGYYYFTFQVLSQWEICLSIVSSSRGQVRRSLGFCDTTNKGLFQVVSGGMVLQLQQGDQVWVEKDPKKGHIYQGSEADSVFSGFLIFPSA
purified human C1q, sequence (P02746 28-253 limits assumed, chain 2 of 3): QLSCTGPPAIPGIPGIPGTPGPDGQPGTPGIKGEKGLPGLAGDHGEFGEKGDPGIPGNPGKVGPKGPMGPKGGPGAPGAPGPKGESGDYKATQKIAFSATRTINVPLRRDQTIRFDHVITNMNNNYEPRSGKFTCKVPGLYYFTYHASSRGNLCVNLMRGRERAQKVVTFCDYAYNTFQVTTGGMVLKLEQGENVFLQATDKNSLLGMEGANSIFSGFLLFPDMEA
purified human C1q, sequence (P02747 29-245 limits assumed, chain 3 of 3): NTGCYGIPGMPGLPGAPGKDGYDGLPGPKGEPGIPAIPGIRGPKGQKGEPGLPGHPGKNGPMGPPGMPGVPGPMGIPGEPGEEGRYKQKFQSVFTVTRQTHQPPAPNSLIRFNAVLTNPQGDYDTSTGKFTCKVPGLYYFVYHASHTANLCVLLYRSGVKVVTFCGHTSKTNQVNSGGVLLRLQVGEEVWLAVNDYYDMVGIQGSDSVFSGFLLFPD
human Fcγ R I, sequence (P12314 16-288 limits assumed): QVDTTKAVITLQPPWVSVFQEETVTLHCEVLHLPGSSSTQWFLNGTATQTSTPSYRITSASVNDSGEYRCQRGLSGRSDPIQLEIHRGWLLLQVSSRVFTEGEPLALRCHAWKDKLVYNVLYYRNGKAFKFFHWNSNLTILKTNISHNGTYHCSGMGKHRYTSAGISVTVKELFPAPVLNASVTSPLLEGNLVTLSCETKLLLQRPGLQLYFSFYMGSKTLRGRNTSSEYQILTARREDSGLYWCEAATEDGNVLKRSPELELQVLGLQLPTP
human Fcγ R IIIB, sequence (O75015 17-200 limits assumed): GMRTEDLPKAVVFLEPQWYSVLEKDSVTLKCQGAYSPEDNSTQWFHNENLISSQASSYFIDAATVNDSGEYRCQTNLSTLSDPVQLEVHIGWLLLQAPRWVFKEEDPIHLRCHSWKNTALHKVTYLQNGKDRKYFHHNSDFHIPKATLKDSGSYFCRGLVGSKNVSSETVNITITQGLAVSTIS

B1: Humanized IgG 1A5 (IgG1), full-length (antibody)
heavy: not shown
light: ELQMTQSPSSVSASVGDTVTIACRASQSITNYLSWYQQKPGKAPKLLIYHASTLQSGIPSRFSGSGSGTDFTLTISSLQPDDFATYYCHYGYGTHTFGQGTKLEIKRTVAAPSVFIFPPSDEQLKSGTASVVCLLNNFYPREAKVQWKVDNALQSGNSQESVTEQDSKDNTYSLSSTLTLSKADYEKHKVYACEVTHQGLSSPVTKSFN
notes: also called IgG 1A5 WT; MAb IgG 1A5; copies: 2 + 2
For the molecule B1, the “EC50 (read off the curve)” value with human Fcγ R I is roughly 0.7 µg/mL. The binding result with human Fcγ R IIB, with human Fcγ R IIIB and in the experiment with purified human C1q was “binds” throughout.

B2: IgG 1A5 ΔD (IgG 1A5 with the 9-amino-acid deletion, amino acids 231-239, in the CH2 domain) (antibody)
heavy: EVQLLESGGGLVQPGGSRRLSCAASGFTISDNVMHWVRQAPGKGLEWVALIYSADTTHYADSVKGRFTISRDNSKNTLYLQMDSLRPEDTAVYYCAREYCTGDTCFAHFDYWGQGTLVSVSSASTKGPSVFPLAPSSKSTSGGTAALGCLVKDYFPEPVTVSWNSGALTSGVHTFPAVLQSSGLYSLSSVVTVPSSSLGTQTYICNVDHKPSNTKVDKKVEPKSCDKTHTCPPCPVFLFPPKPKDTLMISRTPEVTCVVVDVSHEDPEVKFNWYVDGVEVHNAKTKPREEQYNSTYRVVSVLTVLHQDWLNGKEYKCKVSNKALPAPIEKTISKAKGQPREPQVYTLPPSRDELTKNQVSLTCLVKGFYPSDIAVEWESNGQPENNYKTTPPVLDSDGSFFLYSKLTVDKSRWQQGNVFSCSVMHEALHNHYTQKSLSLSPGK
light: ELQMTQSPSSVSASVGDTVTIACRASQSITNYLSWYQQKPGKAPKLLIYHASTLQSGIPSRFSGSGSGTDFTLTISSLQPDDFATYYCHYGYGTHTFGQGTKLEIKRTVAAPSVFIFPPSDEQLKSGTASVVCLLNNFYPREAKVQWKVDNALQSGNSQESVTEQDSKDNTYSLSSTLTLSKADYEKHKVYACEVTHQGLSSPVTKSFN
notes: also called variant ΔD; copies: 2 + 2
On to B2, for which the binding result with purified human C1q is reported as “no binding”.

B3: IgG 1A5 ΔA (replacement amino acids at 327, 330 and 331 from the Fc of IgG4) (antibody)
chain 1: EVQLLESGGGLVQPGGSRRLSCAASGFTISDNVMHWVRQAPGKGLEWVALIYSADTTHYADSVKGRFTISRDNSKNTLYLQMDSLRPEDTAVYYCAREYCTGDTCFAHFDYWGQGTLVSVSSASTKGPSVFPLAPSSKSTSGGTAALGCLVKDYFPEPVTVSWNSGALTSGVHTFPAVLQSSGLYSLSSVVTVPSSSLGTQTYICNVDHKPSNTKVDKKVEPKSCDKTHTCPPCPAPELLGGPSVFLFPPKPKDTLMISRTPEVTCVVVDVSHEDPEVKFNWYVDGVEVHNAKTKPREEQYNSTYRVVSVLTVLHQDWLNGKEYKCKVSNKGLPSSIEKTISKAKGQPREPQVYTLPPSRDELTKNQVSLTCLVKGFYPSDIAVEWESNGQPENNYKTTPPVLDSDGSFFLYSKLTVDKSRWQQGNVFSCSVMHEALHNHYTQKSLSLSPGK
chain 2: ELQMTQSPSSVSASVGDTVTIACRASQSITNYLSWYQQKPGKAPKLLIYHASTLQSGIPSRFSGSGSGTDFTLTISSLQPDDFATYYCHYGYGTHTFGQGTKLEIKRTVAAPSVFIFPPSDEQLKSGTASVVCLLNNFYPREAKVQWKVDNALQSGNSQESVTEQDSKDNTYSLSSTLTLSKADYEKHKVYACEVTHQGLSSPVTKSFN
Consider B3, for which the “EC50 (read off the curve)” value with human Fcγ R I was roughly 3 µg/mL.

B4: Chimpanzee antibody Fab 5H2 (Fab, V domains shown)
VH: EVQLLESGPGLVKPSETLSLTCTVSGGSISDFYWSWLRQSPGKGLEWIGYAHSRVSAYYNPSLKSRVTISVDTSKNQLSLRLSAVTAADTALYYCARQGTGTTGVSEDPFDLWGQGTKVIVSL
VL: ELQMTQSPSSLSASVGDRVTITCRASQDISIRLNWYQQKPGKAPKLLIYDASTLESGVPSRFSGSGSGTDFTLTISSLQPEDFATYYCQQFNSYPLTFGGGTKVEIKR
With B4, the Kd in experiment [1] worked out at 210 pM.

B5: Humanized IgG 5H2 ΔD (IgG1 5H2 with a 9-amino-acid deletion, positions 231-239, at the N-terminus of the CH2 domain) (antibody)
heavy: EVQLLESGPGLVKPSETLSLTCTVSGGSISDFYWSWLRQSPGKGLEWIGYAHSRVSAYYNPSLKSRVTISVDTSKNQLSLRLSAVTAADTALYYCARQGTGTTGVSEDFFDLWGQGTKVIVSLASTKGPSVFPLAPSSKSTSGGTAALGCLVKDYFPEPVTVSWNSGALTSGVHTFPAVLQSSGLYSLSSVVTVPSSSLGTQTYICNVDHKPSNTKVDKKVEPKSCDKTHTCPPCPVFLFPPKPKDTLMISRTPEVTCVVVDVSHEDPEVKFNWYVDGVEVHNAKTKPREEQYNSTYRVVSVLTVLHQDWLNGKEYKCKVSNKALPAPIEKTISKAKGQPREPQVYTLPPSRDELTKNQVSLTCLVKGFYPSDIAVEWESNGQPENNYKTTPPVLDSDGSFFLYSKLTVDKSRWQQGNVFSCSVMHEALHNHYTQKSLSLSPGK
light: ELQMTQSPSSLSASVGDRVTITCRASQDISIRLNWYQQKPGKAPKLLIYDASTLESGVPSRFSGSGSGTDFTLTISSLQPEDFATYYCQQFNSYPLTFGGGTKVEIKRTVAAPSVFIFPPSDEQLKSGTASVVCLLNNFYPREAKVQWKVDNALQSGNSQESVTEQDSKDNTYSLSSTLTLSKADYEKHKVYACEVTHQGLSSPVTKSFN
notes: also called IgG1 5H2 ΔD; IgG 5H2D; copies: 2 + 2
For B5, in experiment [1], the Kd came to 140 pM. Besides, in the experiment with purified human C1q, the binding result was “no binding”.
